Experimental data as given in IntAct's records for PubMed 22835334.

B1: Huntingtin-interacting protein 1 (Homo sapiens), O00291 (parent)
chain: MDRMASSMKQVPNPLPKVLSRRGVGAGLEAAERESFERTQTVSINKAINTQEVAVKEKHARTCILGTHHEKGAQTFWSVVNRLPLSSNAVLCWKFCHVFHKLLRDGHPNVLKDSLRYRNELSDMSRMWGHLSEGYGQLCSIYLKLLRTKMEYHTKNPRFPGNLQMSDRQLDEAGESDVNNFFQLTVEMFDYLECELNLFQTVFNSLDMSRSVSVTAAGQCRLAPLIQVILDCSHLYDYTVKLLFKLHSCLPADTLQGHRDRFMEQFTKLKDLFYRSSNLQYFKRLIQIPQLPENPPNFLRASALSEHISPVVVIPAEASSPDSEPVLEKDDLMDMDASQQNLFDNKFDDIFGSSFSSDPFNFNSQNGVNKDEKDHLIERLYREISGLKAQLENMKTESQRVVLQLKGHVSELEADLAEQQHLRQQAADDCEFLRAELDELRRQREDTEKAQRSLSEIERKAQANEQRYSKLKEKYSELVQNHADLLRKNAEVTKQVSMARQAQVDLEREKKELEDSLERISDQGQRKTQEQLEVLESLKQELATSQRELQVLQGSLETSAQSEANWAAEFAELEKERDSLVSGAAHREEELSALRKELQDTQLKLASTEESMCQLAKDQRKMLLVGSRKAAEQVIQDALNQLEEPPLISCAGSADHLLSTVTSISSCIEQLEKSWSQYLACPEDISGLLHSITLLAHLTSDAIAHGATTCLRAPPEPADSLTEACKQYGRETLAYLASLEEEGSLENADSTAMRNCLSKIKAIGEELLPRGLDIKQEELGDLVDKEMAATSAAIETATARIEEMLSKSRAGDTGVKLEVNERILGCCTSLMQAIQVLIVASKDLQREIVESGRGTASPKEFYAKNSRWTEGLISASKAVGWGATVMVDAADLVVQGRGKFEELMVCSHEIAASTAQLVAASKVKADKDSPNLAQLQQASRGVNQATAGVVASTISGKSQIEETDNMDFSSMTLTQIKRQEMDSQVRVLELENELQKERQKLGELRKKHYELAGVAEGWEEGTEASPPTLQEVVTEKE

Variants of: B1
Conditions: with hd_human HTT

effect of a mutation on the interaction	Variant
increasing interaction	T528L
increasing interaction	K510L
